Where only a bound is given, the exact number is not on record here.

In general, MIC refers to the least concentration at which growth counts as inhibited. The low end stands for inhibition by little substance, the high end for a need for much substance. Usually Ki stands for the dissociation constant of the complex between target and ligand, obtained from inhibition or displacement. Read a low Ki as higher affinity. The Kd is the free concentration of one partner at which half of the binding sites on the other are occupied at equilibrium, for simple one-to-one binding. A low value points to higher affinity.

The test system of assay [1] is bacterial strains. As to the kind of experiment: Minimum inhibitory concentration (MIC), control over all strains. Format: cell-based. The following applies: ciprofloxacin quality control, 1024-0 ng/ml, each strain; not shown.
Assay [2] has as its target T1, elastase (Homo sapiens, UniProt P08246).
T1 construct: purchased Elastin Products Company, Inc. (Owensville, MO, USA)
T1 sequence (P08246 30-267): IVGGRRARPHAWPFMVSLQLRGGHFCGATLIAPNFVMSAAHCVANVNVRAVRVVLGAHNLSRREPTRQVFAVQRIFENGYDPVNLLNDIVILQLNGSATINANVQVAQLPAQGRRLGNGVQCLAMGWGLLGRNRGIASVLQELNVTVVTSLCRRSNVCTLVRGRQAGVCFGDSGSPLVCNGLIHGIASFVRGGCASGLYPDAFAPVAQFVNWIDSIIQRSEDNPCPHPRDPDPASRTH
The following applies: pathologic conditions associated with neutrophil dysfunction; ref [22]; cited from earlier work. From the text: Neutrophils also release granule contents containing enzymes such as elastase, proteinase-3, and cathepsin G. Elastase, a particularly inflammatory enzyme, interferes with thrombomodulin function, and cleaves TF pathway inhibitor (TFPI), the physiological inhibitor of the extrinsic pathway. […] Elastase also induces proteinase-activated receptor activation, contributes to cytokine production and processing, inactivates metalloprotease inhibitors, deg ...

Assay [3] relates to inflamed microvessels. Set-up: method as in PMID 8400269. The following applies: intravital microscopy of inflamed microvessels; ref [50]; cited from earlier work.
Assay [4] deals with neutrophil. The following applies: migration induced by PAF, fMLP or IL-8; ref [49]–[51]; cited from earlier work. From the text:
Once released, serine protease may bind to the cell surface and remains relatively inaccessible to inhibitors, in contrast to soluble enzymes, [48]. Elastase and other serine proteases reportedly modulate several functions of neutrophils, including chemokine activation and degradation, cell recruitment, receptor activation, activation of lymphocytes, NET formation, and cleavage of adhesion molecules, apoptotic proteins, and anticoagulants. Assay ...

Assay [5] concerns normal human plasma. Kind of assay: aPTT. Format: biochemical. The following applies: heparin control 10 µg/ml; not shown. As to the method: (§1) aPTT and PT were evaluated on a STart 4 stago coagulometer (Diagnostica Stago, Parsippany, NJ, USA). Freeze-dried, citrated, normal human plasma was resuspended in ultra-pure water. […] Then, 50 µl of pre-warmed aPTT reagent (STA PTT; Diagnostica Stago, Asnières sur Seine, France) was added and incubated for an additional 2 min. CaCl2 (50 µl at 25 mM) was added to start reactions. […] Then, 100 µl of the PT reagent (NEOplastine CI plus; Diagnostica Stago) was added. Time for clot formation was recorded in duplicate.

For assay [6], the system named is normal human plasma. As to the kind of experiment: PT. The following applies: heparin control 100 µg/ml; not shown. The assay is classed as biochemical. As to the method: as §1
Assay [7] relates to neutrophils. As to the kind of experiment: Neutrophil-induced coagulation. The assay is classed as cell-based, human. The following applies: neutrophils with PMA 50 nM, 3 h; 370 sec without PMA. As to the method:
(§2) A) Platelet aggregation. Washed human platelets were stimulated with elastase only (500 nM, left panel), or cathepsin G only (110 nM, middle tracing), or elastase followed by cathepsin G (right tracing). […] Aggregation response was monitored by turbidimetry using a Lumi-Aggregometer. D) TFPI cleavage. […] After 2 h, reactions were stopped by addition of LDS loading buffer (under reducing conditions, 10 mM DTT), boiled for 5 min, and loaded in 4–12% Nu-PAGE gel. Gels were Coomassie Blue-stained. E) Neutrophil-induced coagulation. […] Fifty µl of this suspension was added to 50 µl of plasma, and reactions were started by addition of CaCl2 (12.5 mM, final concentration)(*, p<0.05).
Whole blood (5 mL collected in 0.5 mL of 3.2% sodium citrate) from healthy donors was diluted in an equal volume of PBS, layered over 5 mL of HISTOPAQUE solution (10771, Sigma Aldrich), and centrifuged for 40 min, at 400×g, at room temperature. The lower interphase having granulocytes was collected and transferred to a 15-ml Falcon tube and resuspended in 10 ml ammonium chloride lysis buffer (1.7 M NH4Cl, […], 1 mM EDTA) to lyse red blood cells. Lysis was carried out twice followed by centrifugation for 10 min at 400×g. Neutrophils were washed with PBS and resuspended at 1×10^6 cells/mL in high glucose DMEM (GIBCO). Neutrophils were kept on ice. […]

For assay [8], the system named is neutrophils. As to the kind of experiment: NETs formation. Format: cell-based, human. The following applies: PMA 5 nM, 3 h, no inhibitor. As to the method:
Left panel, non-activated neutrophil (no PMA). Formation of NETs was visualized under confocal microscopy, using antibody against citrullinated histone. Representative experiment is shown (4 different donors). B) Quantification. Performed as described in Methods.
Whole blood (5 mL collected in 0.5 mL of 3.2% sodium citrate) from healthy donors was diluted in an equal volume of PBS, layered over 5 mL of HISTOPAQUE solution (10771, Sigma Aldrich), and centrifuged for 40 min, at 400×g, at room temperature. The lower interphase having granulocytes was collected and transferred to a 15-ml Falcon tube and resuspended in 10 ml ammonium chloride lysis buffer (1.7 M NH4Cl, […], 1 mM EDTA) to lyse red blood cells. Lysis was carried out twice followed by centrifugation for 10 min at 400×g. […]
Cells were fixed with 500 µl of 4% paraformaldehyde (final concentrations) for 10 min, washed 3 times with PBS and incubated for 10 min with blocking solution (PBS, 10%FBS, 5 mg/ml BSA). […] NETs were quantified according to Farley et al. Briefly, NETs were identified on digitalized images as Hoechst-positive fibrils emanating from cells with an overall length at least twice as long as the cell diameter and were counted for at least two fields of view per variable. Results were expressed as the percentage of NETs/total number of granulocytes.

The test system of assay [9] is washed human platelets. As to the kind of experiment: Platelet aggregation, elastase followed by cathepsin G. Format: cell-based. The following applies: elastase 500 nM, no inhibitor. How it is done: as §2
(§3) Platelet-rich plasma was obtained by plateletpheresis from medication-free platelet donors at the Department of Transfusion Medicine (NIH blood bank). Washing of platelets and platelet aggregation were performed in a Lumi-aggregometer (Chronol-Log, Haverstown, MD, USA) as described, [87].

Assay [10] concerns human neutrophil elastase. Kind of assay: TFPI cleavage by elastase (SDS/PAGE). Format: biochemical. The following applies: elastase 0.8 µg/ml, TFPI 1 µg, 2 h at RT, no inhibitor. How it is done: as §2
After 2 h at RT, reactions were stopped by addition of Laemmli buffer (supplemented with dithiothreitol) and boiled for 5 min. Proteins were separated by 4% to 12% NuPAGE (MES buffer); gels were stained with Coomassie Blue R-250 and destained with 40% methanol. See Blue molecular weight (mol. wt.) markers were used (Invitrogen).

For assay [11], the target named is T2, neutrophil elastase (Homo sapiens, UniProt P08246).
T2 chain: T1 sequence (P08246 30-267)
As to the kind of experiment: enzyme inhibition assay (chromogenic substrate, Cheng-Prusoff).

The target in assay [12] is T2, neutrophil elastase. Kind of assay: SPR. (In general: In SPR one partner is held on a chip, and binding of the other changes the refractive index at the surface.)
Assay [13] deals with washed human platelets. Kind of assay: Platelet aggregation, cathepsin G-induced. The assay is classed as cell-based. The following applies: low dose cathepsin G 110 nM, no inhibitor. As to the method: as §2, §3
For assay [14], the system named is monocyte-like cells. Set-up: method as in PMID 16352738. The following applies: internalized by monocyte-like cells, ref [57], cited from earlier work.

On to `O=C(O)c1cn(C2CC2)c2cc(N3CCNCC3)c(F)cc2c1=O` [ciprofloxacin], for which the MIC in assay [1] is less than 1 mg/L.

As to `CC(C)(C)C(=O)Oc1ccc(S(=O)(=O)Nc2ccccc2C(=O)NCC(=O)O)cc1` [sivelestat], the clinical trial results in assay [2] is “mixed results”.

Turning to `CO[C@H]1C(=O)N2C(C(=O)N3CCC[C@H]3C(=O)O)=C(COC(C)=O)CS(=O)(=O)[C@H]12` [L658758, reference compound], the neutrophil transmigration result in assay [3] is on record as “inhibition of neutrophil transmigration”. Moreover, in [4], the chemotactic neutrophil functions result is reported as “blocks chemotactic neutrophil functions”.

heparin: the aPTT entry in [5] is listed as “prolonged”. Moreover, the PT entry in assay [6] was “prolonged”.

In the case of `Cc1c(-c2ccnn2C)cc(C(=O)NCc2ccc(S(C)(=O)=O)cn2)c(=O)n1-c1cccc(C(F)(F)F)c1` [AZD9668], the clinical trial results in assay [2] was “mixed results”.

`CCCCCCCCCCCCCC(=O)O[C@@H]1[C@@H](C)[C@@]2(O)[C@@H](C=C(CO)C[C@]3(O)C(=O)C(C)=C[C@@H]23)[C@@H]2C(C)(C)[C@]12OC(C)=O` [PMA, Phorbol 12-myristate 13-acetate, reference compound] gave a clotting time in [7] of 250 s. The “induction of NETs” value in [8] was “induces a strong response”.

B1: elastase: neutrophil elastase, enzyme used as stimulus (protein, UniProt P08246 30-267, looked up)
Neutrophil elastase: T1 sequence (P08246 30-267)
Take B1: in [9], the “shape change or aggregation by elastase only” value was “does not promote shape change or aggregation”. Moreover, in assay [10], the “TFPI cleavage by elastase” value is “cleaves TFPI”.

B2: Agaphelin 1-58 (protein)
chain: DINSEMATCACQLIYRPVCASNNESYSNECVLKCASETPTGRSIGLHKVKDGNCNGEF
With B2, the Ki in assay [11] was determined as 0.00922 µM. This molecule returned a Kd in assay [12] of 0.0174 µM.

B3: cathepsin G: neutrophil protease used as platelet agonist (protein, UniProt P08311 21-244, looked up)
Cathepsin G: IIGGRESRPHSRPYMAYLQIQSPAGQSRCGGFLVREDFVLTAAHCWGSNINVTLGAHNIQRRENTQQHITARRAIRHPQYNQRTIQNDIMLLQLSRRVRRNRNVNPVALPRAQEGLRPGTLCTVAGWGRVSMRRGTDTLREVQLRVQRDRQCLRIFGSYDPRRQICVGDRRERKAAFKGDSGGPLLCNNVAHGIVSYGKSSGVPPEVFTRVSSFLPWIRTTMRS
With B3, the “platelet activation by cathepsin G only” value in [13] was “activate platelets”.

B4: Eglin C: pharmacologic inhibitor of elastase (protein, UniProt P01051 1-70, looked up)
Eglin C: TEFGSELKSFPEVVGKTVDQAREYFTLHYPQYDVYFLPEGSPVTLDLRYNRVRVFYNPGTNVVNHVPHVG
Regarding B4, the neutrophil transmigration entry in assay [3] is recorded as “inhibition of neutrophil transmigration”. Also, the chemotactic neutrophil functions entry in assay [4] is given as “blocks chemotactic neutrophil functions”.

B5: secretory leukocyte proteinase inhibitor (protein, UniProt P03973 26-132, looked up)
Antileukoproteinase: SGKSFKAGVCPPKKSAQCLRYKKPECQSDWQCPGKKRCCPDTCGIKCLDPVDTPNPTRRKPGKCPVTYGQCLMLNPPNFCEMDGQCKRDLKCCMGMCGKSCVSPVKA
In the case of B5, the p65 binding entry in assay [14] (binds NF-κB binding sites) is “inhibit p65 binding”. Further, the “TNF-α and IL-8 generation” value in [14] is “promote inhibition of TNF-α and IL-8 generation”. For the same molecule, the chemotactic neutrophil functions result in assay [4] is “blocks chemotactic neutrophil functions”.

(Values after article PMC4161438 (PLoS Pathogens, 2014).)
